T1: mouse MAdCAM expressed on cells (mouse, UniProt Q61826 22-405)
T1 construct: whole, on cells
T1 sequence (looked up): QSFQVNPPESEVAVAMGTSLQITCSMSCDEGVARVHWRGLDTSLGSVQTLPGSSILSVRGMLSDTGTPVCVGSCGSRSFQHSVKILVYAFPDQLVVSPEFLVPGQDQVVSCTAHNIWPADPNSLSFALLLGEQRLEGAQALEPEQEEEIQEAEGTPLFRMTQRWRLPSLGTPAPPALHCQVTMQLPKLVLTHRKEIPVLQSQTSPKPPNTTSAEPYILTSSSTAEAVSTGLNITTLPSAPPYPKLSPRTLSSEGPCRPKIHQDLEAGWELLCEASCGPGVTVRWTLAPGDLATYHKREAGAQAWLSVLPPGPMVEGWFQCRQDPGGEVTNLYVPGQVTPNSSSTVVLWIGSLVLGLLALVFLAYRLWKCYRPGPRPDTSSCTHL

T2: human MAdCAM expressed on cells (human, UniProt Q13477 19-382)
T2 construct: whole, on cells; also called MADCAM1
T2 sequence (looked up): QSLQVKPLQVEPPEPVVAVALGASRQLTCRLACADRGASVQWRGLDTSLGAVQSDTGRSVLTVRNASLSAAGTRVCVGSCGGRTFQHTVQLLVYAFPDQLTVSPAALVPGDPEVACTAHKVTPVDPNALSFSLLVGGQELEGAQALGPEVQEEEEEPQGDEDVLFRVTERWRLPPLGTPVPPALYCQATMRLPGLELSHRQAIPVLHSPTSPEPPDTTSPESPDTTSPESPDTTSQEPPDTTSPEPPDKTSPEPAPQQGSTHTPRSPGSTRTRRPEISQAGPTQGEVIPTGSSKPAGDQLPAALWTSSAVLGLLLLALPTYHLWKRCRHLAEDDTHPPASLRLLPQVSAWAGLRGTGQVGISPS


Tests used:
[1] = target: T1, mouse MAdCAM expressed on cells; assay: cell binding
[2] = target: T2, human MAdCAM expressed on cells; assay: cell binding

| binding result [1] | binding result [2] | Binder |
| --- | --- | --- |
| no binding | binds | MAdCAM antibody Clone ID 34 of Table 7 (IgG) (antibody, V domains shown, IgG format) VH: QVQLVQSGAEVKKPGASVKVSCKASGYTFTGYYIHWVRQAPGQGLEWMGWMNPNSGNTGYAQKFQGRVTMTRDTSTSTVYMELSSLRSEDTAVYYCARDPGFLGYCSGGSCYDGWFDPWGQGTLVTVSS VL: DIQMTQSPSSLSASVGDRVTITCRASQSISSYLHWYQQKPGKAPKLLIYAASSLQSGVPSRFSGSGSGTDFTLTISSLQPEDFATYYCQQSYTAPYTFGQGTKLEIK |
| no binding | binds | MAdCAM antibody Clone ID 13 of Table 7 (IgG) (antibody, V domains shown, IgG format) VH: QVQLVQSGAEVKKPGASVKVSCKASGYTFTTYYMHWVRQAPGQGLEWMGGFDPEDGETIYAQKFQGRVTMTRDTSTSTVYMELSSLRSEDTAVYYCARHAVAGAVGAGYYYYGMDVWGQGTMVTVSS VL: DIQMTQSPSSLSASVGDRVTITCRASESISNWLAWYQQKPGKAPKLLIYAASTLQSGVPSRFSGSGSGTDFTLTISSLQPEDFATYYCQQSYSVPFTFGPGTKVDIK |
| no binding | binds | MAdCAM antibody Clone ID 25 of Table 7 (IgG) (antibody, V domains shown, IgG format) VH: EVQLLESGGGLVQPGGSLRLSCAASGFTFSNAWMSWVRQAPGKGLEWVSTIVGNGGATYYADSVKGRFTISRDNSKNTLYLQMNSLRAEDTAVYYCARDNPLRWQGMDVWGQGTLVTVSS VL: DIQMTQSPSSLSASVGDRVTITCRASQDISNYLNWYQQKPGKAPKLLIYAASSLQSGVPSRFSGSGSGTDFTLTISSLQPEDFATYYCQQSYSIPPTFGPGTKVDIK |
| no binding | binds | MAdCAM antibody Clone ID 16 of Table 7 (IgG) (antibody, V domains shown, IgG format) VH: EVQLLESGGGLVQPGGSLRLSCAASGFTFDDYAMHWVRQAPGKGLEWVSYIDASGTTIYYADSVKGRFTISRDNSKNTLYLQMNSLRAEDTAVYYCAKDQAAAGYWYFDLWGRGTLVTVSS VL: DIQMTQSPSSLSASVGDRVTITCQASQDISNYLNWYQQKPGKAPKLLIYKASTLESGVPSRFSGSGSGTDFTLTISSLQPEDFATYYCQQSYSTPITFGQGTRLEIK |
| no binding | binds | MAdCAM antibody Clone ID 19 of Table 7 (IgG) (antibody, V domains shown, IgG format) VH: EVQLLESGGGLVQPGGSLRLSCAASGFTFEDYAMHWVRQAPGKGLEWVSYLNSDGGSTSYADSVKGRFTISRDNSKNTLYLQMNSLRAEDTAVYYCAKDYCTNGVCAFDYWGQGTLVTVSS VL: DIQMTQSPSSLSASVGDRVTITCRASQSISTYLNWYQQKPGKAPKLLIYDASNLETGVPSRFSGSGSGTDFTLTISSLQPEDFATYYCQQSYTIPITFGQGTRLEIK |
| no binding | binds | MAdCAM antibody Clone ID 18 of Table 7 (IgG) (antibody, V domains shown, IgG format) VH: QVQLVQSGAEVKKPGSSVKVSCKASGYTFTNYYMHWVRQAPGQGLEWMGGIIPIVDRVKYAQKFQGRVTITADESTSTAYMELSSLRSEDTAVYYCAKGRYTVNYYYGMDVWGQGTTVTVSS VL: DIQMTQSPSSLSASVGDRVTITCQANQDISNYLNWYQQKPGKAPKLLIYRASKLEAGVPSRFSGSGSGTDFTLTISSLQPEDFATYYCQQSSEIPYSFGQGTKLEIK |
| no binding | binds | MAdCAM antibody Clone ID 15 of Table 7 (IgG) (antibody, V domains shown, IgG format) VH: QVQLVQSGAEVKKPGASVKVSCKASGYTFTGYYMHWVRQAPGQGLEWMGWIGPNSGDTNYAQKFQGRVTMTRDTSTSTVYMELSSLRSEDTAVYYCARDLDHNWYFDLWGRGTLVTVSS VL: DIVMTQSPLSLPVTPGEPASISCRSSQSLLHSNGYNYLDWYLQKPGQSPQLLIYSSSNRAPGVPDRFSGSGSGTDFTLKISRVEAEDVGVYYCMQALHIPLTFGGGTKVEIK |
| no binding | binds | MAdCAM antibody Clone ID 21 of Table 7 (IgG) (antibody, V domains shown, IgG format) VH: EVQLVESGGGLVKPGGSLRLSCAASGFTFSSYWMSWVRQAPGKGLEWVSYISGDSGYTNYAAPVKGRFTISRDDSKNTLYLQMNSLKTEDTAVYYCARANSSGWYDWYFDLWGRGTLVTVSS VL: not shown |

Source: patent publication US20200392228A1 (PANDION OPERATIONS, published 2020)
